Laboratory results as given in article PMC13631358.

Biological target: tapasin-ERp57 heterodimer (ER-lumenal domain of tapasin, full-length ERp57 Cys36Ala), disulfide-linked (human) (UniProt P30101)
Experiment: ITC; Crt or Crt^Δacidic (titrant, 500 µM) into tapasin-ERp57 heterodimer (analyte, 19 µM; no PaSta1 Fab named); 25 °C; 50 mM HEPES-NaOH pH 7.4, 150 mM NaCl, 1 mM CaCl2

Kd: 4.2 µM
Substance: calreticulin (amino acids 18-417) (from UniProt P27797 18-417) (natural protein)
